The record followed here is article PMC8092277, “Cytoplasmic CPSF6 Regulates HIV-1 Capsid Trafficking and Infection in a Cyclophilin A-Dependent Manner” (mBio, 2021).

The data set deals with the molecule itself. Description: negative-stain TEM; MBP-CPSF6 P1 or P2 alone, incubated in CA assembly buffer.

B1: MBP-His6-CPSF6-588 (natural protein, UniProt Q16630-2 1-588, looked up)
chain: MADGVDHIDIYADVGEEFNQEAEYGGHDQIDLYDDVISPSANNGDAPEDRDYMDTLPPTVGDDVGKGAAPNVVYTYTGKRIALYIGNLTWWTTDEDLTEAVHSLGVNDILEIKFFENRANGQSKGFALVGVGSEASSKKLMDLLPKRELHGQNPVVTPCNKQFLSQFEMQSRKTTQSGQMSGEGKAGPPGGSSRAAFPQGGRGRGRFPGAVPGGDRFPGPAGPGGPPPPFPGNLIKHLVKGTRPLFLETRIPWHMGHSIEEIPIFGLKAGQTPPRPPLGPPGPPGPPGPPPPGQVLPPPLAGPPNRGDRPPPPVLFPGQPFGQPPLGPLPPGPPPPVPGYGPPPGPPPPQQGPPPPPGPFPPRPPGPLGPPLTLAPPPHLPGPPPGAPPPAPHVNPAFFPPPTNSGMPTSDSRGPPPTDPYGRPPPYDRGDYGPPGREMDTARTPLSEAEFEEIMNRNRAISSSAISRAVSDASAGDYGSAIETLVTAISLIKQSKVSADDRCKVLISSLQDCLHGIESKSYGSGSRRERSRERDHSRSREKSRRHKSRSRDRHDDYYRERSRERERHRDRDRDRDRERDREREYRHR
notes: cleavage and polyadenylation specificity factor 6 (CPSF6), the isoform of 588 residues, full length; Order: MBP, His6, CPSF6; An HRV-3C site allows removal of MBP, but the cleaved protein precipitated, so the tagged protein was used; Size exclusion gave two peaks of the same construct, P1 and P2, which are kept here as one molecule; also called MBP-CPSF6; full-length CPSF6; source: Expi 293F …
As to B1, the binding result was “binds”.
